Source: the Immune Epitope Database (IEDB)
pIC50: −log10 of the molar value.

What was measured:
[1] = target: HLA-A*02:02; assay: IEDB peptide-MHC binding, cellular MHC/competitive/fluorescence; ≥ and ≤ were set here for values at or beyond the usual limits of such assays
[2] = target: HLA-A*68:02; assay: as above
[3] = target: HLA-A*02:01; assay: as above
[4] = target: HLA-A*02:03; assay: IEDB peptide-MHC binding, purified MHC/competitive/radioactivity; ≥ and ≤ were set here for values at or beyond the usual limits of such assays
[5] = target: HLA-A*02:06; assay: as above
[6] = target: HLA-A*02:06; assay: IEDB peptide-MHC binding, cellular MHC/competitive/fluorescence; ≥ and ≤ were set here for values at or beyond the usual limits of such assays
[7] = target: HLA-A*68:02; assay: IEDB peptide-MHC binding, purified MHC/competitive/radioactivity; ≥ and ≤ were set here for values at or beyond the usual limits of such assays
[8] = target: HLA-A*02:01; assay: as above
[9] = source organism: Vaccinia virus WR
[10] = source organism: Influenza A virus

Sequence	pIC50 [1, 9]	pIC50 [2, 9]	pIC50 [3, 9]	pIC50 [4, 9]	pIC50 [5, 9]	further results
ITPNNLNKI	4.84	4.87	4.47	6.06	6.39	–
LVQYRILPM	4.83	4.23	4.46	5.93	5.33	–
KTRLFRSPQV	5.03	5.21	5.15	6.01	6.36	–
EAFETQSGAL	5.07	–	4.85	6.00	–	pIC50 [6, 9]: 4.82; pIC50 [7, 9]: 7.17
IVQSVLRDI	≤ 4.15	4.32	4.33	7.00	5.88	–
SIGFEARIV	4.99	4.72	5.14	6.24	5.88	–
VTDKTAYIGT	4.66	5.19	5.18	5.40	6.64	–
GLIVILFIM	4.87	–	–	5.86	–	pIC50 [6, 9]: 5.28; pIC50 [7, 9]: 5.86; pIC50 [8, 9]: 5.78
QVKELGIAI	5.04	5.12	4.97	6.05	5.43	–
NTITTFIPI	4.81	–	–	6.01	–	pIC50 [6, 9]: 5.11; pIC50 [7, 9]: 8.92; pIC50 [8, 9]: 6.07
RTWKVLSIM	4.72	–	–	5.58	–	pIC50 [6, 9]: 4.47; pIC50 [7, 9]: 5.38; pIC50 [8, 9]: 6.08
LTQVKELGIA	4.93	4.87	4.41	6.82	7.74	–
VNPTLLFLKV	–	–	–	–	–	pIC50 [1, 10]: 5.20; pIC50 [6, 10]: 4.78; pIC50 [7, 10]: 7.62; pIC50 [4, 10]: 5.55; pIC50 [8, 10]: 5.43
DLKHATDYIA	5.06	5.03	4.79	5.53	5.98	–
TQVKELGIA	5.14	4.63	4.91	7.28	7.25	–
LTKDRKMLEL	5.11	–	–	6.88	–	pIC50 [6, 9]: 4.68; pIC50 [7, 9]: 5.32; pIC50 [8, 9]: 5.46
DINVIGLIV	5.01	–	–	5.39	–	pIC50 [6, 9]: 5.26; pIC50 [7, 9]: 5.64; pIC50 [8, 9]: 6.41
CIVAAVIIM	4.85	–	–	5.85	–	pIC50 [6, 9]: 4.48; pIC50 [7, 9]: 5.35; pIC50 [8, 9]: 5.80
QQLCTMERT	≤ 4.15	≤ 4.15	4.33	5.34	6.03	–
VAMLLTHGA	5.14	5.02	5.05	6.20	6.14	–
AVTLNRIKI	4.96	–	–	5.48	–	pIC50 [6, 9]: 5.12; pIC50 [7, 9]: 5.31; pIC50 [8, 9]: 5.94
AAMDDFQLI	–	–	–	–	–	pIC50 [1, 10]: 5.02; pIC50 [2, 10]: 4.24; pIC50 [3, 10]: 5.10; pIC50 [4, 10]: 5.76; pIC50 [5, 10]: 7.00
NIKPVIVPDI	4.99	5.02	≤ 4.15	6.13	6.02	–
GALYLGHSA	5.12	4.89	4.65	5.72	6.10	–
KINNNRIVAM	5.04	4.64	4.63	5.89	5.50	–
YVILKDPRIA	5.22	4.72	4.40	6.45	5.72	–
KTPLYYLSGT	4.66	4.46	4.35	5.51	5.85	–
GVLIAGIIL	5.28	4.77	–	5.98	6.02	pIC50 [8, 9]: 6.26
FAFIDFSKST	4.93	5.30	5.11	5.62	5.85	–
